Source: paper PMC5906708, “Manipulation of Light Signal Transduction Factors as a Means of Modifying Steroidal Glycoalkaloids Accumulation in Tomato Leaves”

T1: SlHY5 (GST-HY5) (Solanum lycopersicum, UniProt Q9SM50 1-158)
T1 sequence: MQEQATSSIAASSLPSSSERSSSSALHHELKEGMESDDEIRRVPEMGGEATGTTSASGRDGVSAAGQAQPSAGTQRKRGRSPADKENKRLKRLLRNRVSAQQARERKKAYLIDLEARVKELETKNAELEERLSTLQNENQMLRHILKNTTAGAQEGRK


Assays:
SlHY5 (GST-HY5) = target: T1, SlHY5 (GST-HY5); assay: EMSA; LightShift Chemiluminescent EMSA kit, 25 min at 22 C, 6% native PAGE; buffer, salt and pH not stated; settings: protein: recombinant, tags: GST (pGEX-4T-1), chain copies: 2, label: biotin
SlPIF3 (GST-PIF3) = SlPIF3 (GST-PIF3) (Solanum lycopersicum, UniProt A0A3Q7EQR7 388-618); assay: as above; settings: protein: recombinant, tags: GST (pGEX-4T-1), chain copies: 2, label: biotin
Chain of SlPIF3 (GST-PIF3) (A0A3Q7EQR7 entry or part of it): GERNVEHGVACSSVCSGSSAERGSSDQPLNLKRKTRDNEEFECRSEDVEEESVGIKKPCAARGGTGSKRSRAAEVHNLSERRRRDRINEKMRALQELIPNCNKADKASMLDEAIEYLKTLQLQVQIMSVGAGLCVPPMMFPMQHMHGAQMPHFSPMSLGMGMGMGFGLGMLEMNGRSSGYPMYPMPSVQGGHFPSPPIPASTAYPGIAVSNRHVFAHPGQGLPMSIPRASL

Binder	binding result (SlHY5 (GST-HY5); blunt)	binding result (SlPIF3 (GST-PIF3); blunt)	binding result (SlHY5 (GST-HY5))	binding result (SlPIF3 (GST-PIF3))
GAME2 probe (dsDNA) DNA 1: ATCCCAAAAGAGTTGTTAGGTCGTGCACAAAACCCGTTTTCTGCGAAAAT DNA 2: ATTTTCGCAGAAAACGGGTTTTGTGCACGACCTAACAACTCTTTTGGGAT	no binding	no binding		
GAME6 probe (dsDNA) DNA 1: ATAATAACACCGTTTCTCTGCTTTAAGCGTGCTTTTTATCTCATAACTAAAAACT DNA 2: AGTTTTTAGTTATGAGATAAAAAGCACGCTTAAAGCAGAGAAACGGTGTTATTAT	no binding	no binding		
GAME4 promoter G-box probe (dsDNA) DNA 1: GTTGGGGGGCTAAATTATATTCACGTGATTGTATTTTTTTTTTTAATTGC DNA 2: GCAATTAAAAAAAAAAATACAATCACGTGAATATAATTTAGCCCCCCAAC			binds	binds
GAME18 probe (dsDNA) DNA 1: TGATACAACTAAAAGACATACGTTTAAAAAAGCAAATTGATCAAGTCGTTTG DNA 2: CAAACGACTTGATCAATTTGCTTTTTTAAACGTATGTCTTTTAGTTGTATCA	no binding	no binding		
GAME1 promoter G-box probe (dsDNA) DNA 1: GATTGCTTAAAGAGAGAATACCACGTGATGTCCCCCACACCACACCTGCT DNA 2: AGCAGGTGTGGTGTGGGGGACATCACGTGGTATTCTCTCTTTAAGCAATC			binds	binds
GAME11 probe (dsDNA) DNA 1: AAGTAAATTATAAATATACGTGACGAAAACGATCTTTAAAATTCTTTGTA DNA 2: TACAAAGAATTTTAAAGATCGTTTTCGTCACGTATATTTATAATTTACTT	no binding	no binding		
GAME12 probe (dsDNA) DNA 1: GAAACGATATAATATACGTGATACAAGTTTATTAATAAATCAATGGCCCA DNA 2: TGGGCCATTGATTTATTAATAAACTTGTATCACGTATATTATATCGTTTC	no binding	no binding		
GAME17 promoter G-box probe (dsDNA) DNA 1: CGACATTTGATTGAATTTTAAATTTCACACGTGATACATAGATTGAGATT DNA 2: AATCTCAATCTATGTATCACGTGTGAAATTTAAAATTCAATCAAATGTCG			binds	binds
